Positions count from the first letter of the chain named.

This is an account of results in article PMC5703498, “Plant-type phytoene desaturase: Functional evaluation of structural implications” (PLoS ONE, 2017).

This data set concerns the molecule itself. The experiment in a line: SEC; gel permeation chromatography (GPC) of the purified protein on a Superose 6 10/300 GL column, elution monitored at 280 nm, carried out as in ref. 6. On the technique in general: Size exclusion chromatography separates by hydrodynamic size, large species first.

B1: Oryza sativa phytoene desaturase with C-terminal His6 (OsPDS-His6), wild type (enzyme, UniProt A2XDA1 88-578, looked up)
chain: AGQLSSFFRNSEQPTKPLQVVIAGAGLAGLSTAKYLADAGHKPILLEARDVLGGKIAAWKDEDGDWYETGLHIFFGAYPNIQNLFGELGINDRLQWKEHSMIFAMPNKPGEFSRFDFPETLPAPLNGIWAILRNNEMLTWPEKVKFALGLLPAMVGGQAYVEAQDGFTVSEWMKKQGVPDRVNDEVFIAMSKALNFINPDELSMQCILIALNRFLQEKHGSKMAFLDGNPPERLCMPIVDHVRSLGGEVRLNSRIQKIELNPDGTVKHFALTDGTQITGDAYVFATPVDILKLLVPQEWKEISYFKKLEKLVGVPVINVHIWFDRKLKNTYDHLLFSRSSLLSVYADMSVTCKEYYDPNRSMLELVFAPAEEWVGRSDTEIIEATMQELAKLFPDEIAADQSKAKILKYHVVKTPRSVYKTIPDCEPCRPLQRSPIEGFYLAGDYTKQKYLASMEGAVLSGKLCAQSVVEDYKMLSRRSLKSLQSEVPVAS
notes: residue numbers count on the immature protein A2XDA1.2 including the transit peptide; the GPC done here is described only as 'homooligomer'; Cloned through an NdeI site, so a start methionine probably precedes residue 88 (surmised); also called rice PDS-His6; wild type PDS; not shown: His6, C-terminal, kept
As for B1, the binding result was “binds”.

B2: Oryza sativa phytoene desaturase Arg300Ser mutant (Arg300Ser PDS) (enzyme, UniProt A2XDA1 88-578, looked up)
chain: B1 chain with R213S
notes: residue numbers count on the immature protein A2XDA1.2 including the transit peptide; Same construct as m1 apart from the mutation; about 70% in the FAD holo form, like the wild type; also called mutant enzyme Arg300Ser; source: E. coli, purified
As for B2, the binding result is on record as “binds”.
